In patent US20030180744, “High affinity oligonucleotide ligands to growth factors” (GILEAD SCIENCES, INC., published 2003):

T1: KGF (hKGF) (Homo sapiens, UniProt P21781 P21781:32-194)
T1 sequence: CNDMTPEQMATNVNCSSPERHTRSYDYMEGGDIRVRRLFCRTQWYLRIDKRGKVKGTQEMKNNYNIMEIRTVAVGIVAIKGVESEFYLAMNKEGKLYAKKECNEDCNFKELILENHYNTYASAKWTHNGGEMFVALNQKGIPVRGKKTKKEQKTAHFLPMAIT

B1: 53F (ssRNA)
RNA: GGGAGGACGAUGCGGAUCAAAAGCACUCAUUCCCGUGCUCGCUUCAUUGGUCCCCCAGACGACUCGCCCGA
modifications: 2'-F pyrimidines
B2: 27F (ssRNA)
RNA: GGGAGGACGAUGCGGCAGUCUGGAUCUCUAUUGGAAUUUAGUCCUCAACUGUGCCCCAGACGACUCGCCCGA
modifications: 2'-F pyrimidines
B3: 36N (ssRNA)
RNA: GGGAGGACGAUGCGGGAAGGGAACAGGAUAAGACAAGUCGAACAAAGCCGAGGUGCAGACGACUCGCCCGA
modifications: 2'-NH2 pyrimidines
B4: 25N (ssRNA)
RNA: GGGAGGACGAUGCGGGAGGGAAUGAGGAAACAACUAGCAGAUAACCGAGCUGGCCAGACGACUCGCCCGA
modifications: 2'-NH2 pyrimidines
B5: 3F (ssRNA)
RNA: GGGAGGACGAUGCGGAUCGUAAUCGCCACUACUACUUUCCGAACCCGCACGUGGCCAGACGACUCGCCCGA
modifications: 2'-F pyrimidines
B6: 48N (ssRNA)
RNA: GGGAGGACGAUGCGGGGCAAAGGAAGUUGGAAUCGGGACUAAGUAGUGUGUGGCCAGACGACUCGCCCGA
modifications: 2'-NH2 pyrimidines
B7: 35N (ssRNA)
RNA: GGGAGGACGAUGCGGGCUUAGGGAAAUGGUUCUGAGGUGGUCAGACGACUCGCCCGA
modifications: 2'-NH2 pyrimidines
B8: 11F (ssRNA)
RNA: GGGAGGACGAUGCGGUGAUGGCGACCAGUCAAACCGGUGCUUUUACUCCCCCGCCAGACGACUCGCCCGA
modifications: 2'-F pyrimidines
B9: 2F (ssRNA)
RNA: GGGAGGACGAUGCGGGCAUUCGUCAAUACCUUGUUUUAUUCCUUUUCUAGCGGCCCAGACGACUCGCCCGA
modifications: 2'-F pyrimidines
B10: 34N (ssRNA)
RNA: GGGAGGACGAUGCGGGCGGGAAGAGCUAAUGGAAGUGGAAUCAGUCACAGUGCGGCAGACGACUCGCCCGA
modifications: 2'-NH2 pyrimidines
B11: 35F (ssRNA)
RNA: GGGAGGACGAUGCGGCGAAAUUAGCUUCUUAUGACUCACGUUUCCUUGCCGCCCCAGACGACUCGCCCGA
modifications: 2'-F pyrimidines
B12: 47N (ssRNA)
RNA: GGGAGGACGAUGCGGGAAGGGUAGGAAGGUCAAGAGGAAACAGCGCUUCGGGGUGCAGACGACUCGCCCGA
modifications: 2'-NH2 pyrimidines
B13: 55N (ssRNA)
RNA: GGGAGGACGAUGCGGACACACAAGUGAAGGUCAGACGCGAAUUACGUGGGUGGGCAGACGACUCGCCCGA
modifications: 2'-NH2 pyrimidines
B14: 24N (ssRNA)
RNA: GGGAGGACGAUGCGGGUGGGAAGAUGAGCCGGUCGGCAGUAAUGUGACACUGCGGCAGACGACUCGCCCGA
modifications: 2'-NH2 pyrimidines
B15: 41F (ssRNA)
RNA: GGGAGGACGAUGCGGGGACUUUGACAGGCAUUGAUUUCGACCUGUUCCCCGUGGCCAGACGACUCGCCCGA
modifications: 2'-F pyrimidines
B16: 49F (ssRNA)
RNA: GGGAGGACGAUGCGGGGACUUUGACAGGCAUUGAUUUCGACGUGUUCCCCGUGGCCAGACGACUCGCCCGA
modifications: 2'-F pyrimidines
B17: 57F (ssRNA)
RNA: GGGAGGACGAUGCGGUGACUAUCUGGCUCGAUCCAAUCACCCGAGCCCACCGCGCCAGACGACUCGCCCGA
modifications: 2'-F pyrimidines
B18: 45F (ssRNA)
RNA: GGGAGGACGAUGCGGGUCGUAUUCAUCUCCUUGUUCUGUUUCGUUGCACCUGGCCCAGACGACUCGCCCGA
modifications: 2'-F pyrimidines
B19: 55F (ssRNA)
RNA: GGGAGGACGAUGCGGUCCGUCAUAACGGCCAUAAACUGCGAAUACUCCCUGGCCCAGACGACUCGCCCGA
modifications: 2'-F pyrimidines
B20: 71N (ssRNA)
RNA: GGGAGGACGAUGCGGAAACGGCGUGGCAAAAGUGAGGGGGUAGGAUGUACCAUGGGUCAGACGACUCGCCCGA
modifications: 2'-NH2 pyrimidines
B21: 5F (ssRNA)
RNA: GGGAGGACGAUGCGGCGUCCCGAGUCACGCUGUCCUGAUAACCUUCUCUGUGCCCAGACGACUCGCCCGA
modifications: 2'-F pyrimidines
B22: 69N (ssRNA)
RNA: GGGAGGACGAUGCGGGUAGGGAGUAGGACAGACAUAACAGUGCAACCAUCGUGGCCAGACGACUCGCCCGA
modifications: 2'-NH2 pyrimidines
B23: 58F (ssRNA)
RNA: GGGAGGACGAUGCGGGAACUAAUGGCCGUGAUUAACCAAUGCAGGCUUCCUGCGCCAGACGACUCGCCCGA
modifications: 2'-F pyrimidines
B24: 10N (ssRNA)
RNA: GGGAGGACGAUGCGGUAGCUGCUGUCAUGCAAGACACUAGAAGAUUAAGAUGGGGCAGACGACUCGCCCGA
modifications: 2'-NH2 pyrimidines
B25: 60N (ssRNA)
RNA: GGGAGGACGAUGCGGCCCCUUAGCUCAGUGGUUAGAGCAGACGACUCGCCCGA
modifications: 2'-NH2 pyrimidines
B26: 29F (ssRNA)
RNA: GGGAGGACGAUGCGGGGACUUCAACUAAGUCCUCAUUUGCCUCGCUCCUCGUGCCCAGACGACUCGCCCGA
modifications: 2'-F pyrimidines
B27: 23F (ssRNA)
RNA: GGGAGGACGAUGCGGCCCUACCACUUUUUCCCUCUACUGUUAUCCUGUCCCCCAGACGACUCGCCCGA
modifications: 2'-F pyrimidines
B28: 11N (ssRNA)
RNA: GGGAGGACGAUGCGGGGGCCGGAUUUGAACCGACGACUUCGGGUUAUGAGCCCGACGUCAGACGACUCGCCCGA
modifications: 2'-NH2 pyrimidines
B29: 54F (ssRNA)
RNA: GGGAGGACGAUGCGGAAGAUCUCCCAACUGCUGUGGCUAAUAAUUCUCUCCGCGUCCCCAGACGACUCGCCCGA
modifications: 2'-F pyrimidines
B30: 72N (ssRNA)
RNA: GGGAGGACGAUGCGGGAGGGGAAAAUGAGACCGACAGAUUGACGGAAGUACUGGGCAGACGACUCGCCCGA
modifications: 2'-NH2 pyrimidines
B31: 7F (ssRNA)
RNA: GGGAGGACGAUGCGGCGGGUACUCUUCGCCAGCUCCUCCAAGCGCGACCUGUGCCCAGACGACUCGCCCGA
modifications: 2'-F pyrimidines
B32: 60F (ssRNA)
RNA: GGGAGGACGAUGCGGUGACAUGGAAUUUUCUACGGGCCCGAUCCUGCCAGCCGUGUGCAGACGACUCGCCCGA
modifications: 2'-F pyrimidines
B33: 16N (ssRNA)
RNA: GGGAGGACGAUGCGGAAGUUCUAACAAGUUAGUGGAAGGUUCCACUUGAAUGUACAGACGACUCGCCCGA
modifications: 2'-NH2 pyrimidines
B34: 22F (ssRNA)
RNA: GGGAGGACGAUGCGGCCUGAAGUACAGGCUCUAAACUCCAAGCGCGACCGUCCGCCAGACGACUCGCCCGA
modifications: 2'-F pyrimidines
B35: 9F (ssRNA)
RNA: GGGAGGACGAUGCGGAUAAUGGCUAGAACUAGCUCGCAUCUUGGUGUCCGGUGCCCAGACGACUCGCCCGA
modifications: 2'-F pyrimidines
B36: 42F (ssRNA)
RNA: GGGAGGACGAUGCGGCGACACAAUAGCCUUUGAUCCCAUGAUGGCUCGCCGUGCCCAGACGACUCGCCCGA
modifications: 2'-F pyrimidines
B37: 24F (ssRNA)
RNA: GGGAGGACGAUGCGGUGGUCUCCCUAGAUCUACAGCACUUCCAUCGCAUUGGGCCAGACGACUCGCCCGA
modifications: 2'-F pyrimidines
B38: 8F (ssRNA)
RNA: GGGAGGACGAUGCGGUUUCGAAUAGGGCCAUUUCUCACUAGCUAUCCUACCCUGCCCAGACGACUCGCCCGA
modifications: 2'-F pyrimidines
B39: 28N (ssRNA)
RNA: GGGAGGACGAUGCGGUUGCUCUACAAUGACGCGGUGACUCCGCAGUUCUUGGACACAGACGACUCGCCCGA
modifications: 2'-NH2 pyrimidines
B40: 54N (ssRNA)
RNA: GGGAGGACGAUGCGGAGAACCAACAGAGCCCCCUGGUGGUGGGGGAAGGAUUCUCAGACGACUCGCCCGA
modifications: 2'-NH2 pyrimidines

Each binder was assayed against T1, KGF (hKGF) (assay: filter; DPBS, 37 C). Conditions: tags: Upstate Biotechnology; label: 32P.

In order of rising Kd:
1. B1  0.7 nM
2. B10  0.8 nM
3. B35  0.83 nM
4. B4  0.87 nM
5. B36  0.9 nM
6. B16  1 nM
7. B11  1.1 nM
8. B24  1.1 nM
9. B14  1.16 nM
10. B17  1.2 nM
11. B29  1.23 nM
12. B13  1.25 nM
13. B28  1.28 nM
14. B6  1.34 nM
15. B33  1.4 nM
16. B15  1.44 nM
17. B2  1.52 nM
18. B12  1.76 nM
19. B9  1.77 nM
20. B37  2.02 nM
21. B32  2.1 nM
22. B7  2.32 nM
23. B19  2.52 nM
24. B23  2.52 nM
25. B27  2.52 nM
26. B21  2.53 nM
27. B39  2.54 nM
28. B38  2.63 nM
29. B34  2.75 nM
30. B26  3.24 nM
31. B20  3.52 nM
32. B31  3.69 nM
33. B8  3.74 nM
34. B5  4.47 nM
35. B18  4.7 nM
36. GGGAGGACGAUGCGGAUGGAGCUGAAAUCAGACGACUCGCCCGA (ssRNA, 2'-NH2 pyrimidines) [22N]  5.7 nM
37. B25  7.38 nM
38. B30  7.67 nM
39. B3  8.27 nM
40. B22  15.2 nM

Same assay, conditions: tags: Upstate Biotechnology; label: 32P; dumbbell (predicted)

B40 showed a Kd of 5.35 nM.
